* marks the point of attachment. αMan = OC[C@H]1O[C@H](*)[C@@H](O)[C@@H](O)[C@@H]1O
Biological target: T1, soluble form of bovine POMGNT2 (sPOMGNT2, residues 45–580) (bovine, UniProt Q5NDF2 45-580)
T1 sequence (looked up): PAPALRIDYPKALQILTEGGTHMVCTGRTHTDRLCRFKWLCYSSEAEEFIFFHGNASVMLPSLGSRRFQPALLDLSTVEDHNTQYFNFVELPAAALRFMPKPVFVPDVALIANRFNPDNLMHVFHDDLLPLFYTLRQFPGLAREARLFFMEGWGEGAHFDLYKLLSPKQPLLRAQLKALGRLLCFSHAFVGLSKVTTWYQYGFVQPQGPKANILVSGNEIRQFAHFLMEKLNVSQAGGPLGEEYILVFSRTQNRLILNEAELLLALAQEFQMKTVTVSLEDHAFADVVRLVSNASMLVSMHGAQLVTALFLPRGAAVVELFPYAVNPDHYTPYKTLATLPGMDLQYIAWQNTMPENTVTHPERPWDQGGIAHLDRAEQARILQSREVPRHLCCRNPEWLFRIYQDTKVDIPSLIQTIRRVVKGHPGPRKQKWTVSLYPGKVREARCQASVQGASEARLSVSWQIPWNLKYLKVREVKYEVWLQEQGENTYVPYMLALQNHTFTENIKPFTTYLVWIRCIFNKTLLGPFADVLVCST
Assay: crystal structure

Binder	binding result
Ac-TIRTRGAIIQT(αMan)PTLGPIQPTR-NH2 (SMILES CC[C@H](C)[C@H](NC(=O)[C@H](C)NC(=O)CNC(=O)[C@H](CCCNC(=N)N)NC(=O)[C@@H](NC(=O)[C@H](CCCNC(=N)N)NC(=O)[C@@H](NC(=O)[C@@H](NC(C)=O)[C@@H](C)O)[C@@H](C)CC)[C@@H](C)O)C(=O)N[C@H](C(=O)N[C@@H](CCC(N)=O)C(=O)N[C@H](C(=O)N1CCC[C@H]1C(=O)N[C@H](C(=O)N[C@@H](CC(C)C)C(=O)NCC(=O)N1CCC[C@H]1C(=O)N[C@H](C(=O)N[C@@H](CCC(N)=O)C(=O)N1CCC[C@H]1C(=O)N[C@H](C(=O)N[C@@H](CCCNC(=N)N)C(N)=O)[C@@H](C)O)[C@@H](C)CC)[C@@H](C)O)[C@@H](C)O[C@H]1O[C@H](CO)[C@@H](O)[C@H](O)[C@@H]1O)[C@@H](C)CC) [379Man long peptide]	binds
Ac-QT(αMan)PTLGPIQPTR-NH2 (SMILES CC[C@H](C)[C@H](NC(=O)[C@@H]1CCCN1C(=O)CNC(=O)[C@H](CC(C)C)NC(=O)[C@@H](NC(=O)[C@@H]1CCCN1C(=O)[C@@H](NC(=O)[C@H](CCC(N)=O)NC(C)=O)[C@@H](C)O[C@H]1O[C@H](CO)[C@@H](O)[C@H](O)[C@@H]1O)[C@@H](C)O)C(=O)N[C@@H](CCC(N)=O)C(=O)N1CCC[C@H]1C(=O)N[C@H](C(=O)N[C@@H](CCCNC(=N)N)C(N)=O)[C@@H](C)O) [379Man short peptide]	binds
